Key:
[1] = target: SARS-CoV-2 RBD-Fc fusion protein (SARS-CoV-2, UniProt P0DTC2); assay: ELISA; conditions: both partners purified
[2] = target: SARS-CoV-2 RBD without the Fc fragment (SARS-CoV-2, UniProt P0DTC2); assay: ELISA; conditions: both partners purified

B1: nCoVFab1 (Fab, V domains shown)
VH: QVQLVESGGGLVQPGGSLRLSCAASGFTVSSNYMSWVRQAPGKGLEWVSVIYSGGSTYYADSVKGRFTISRDNSKNTLYLQMNSLRAEDTAVYYCARGDGSDDYYYGMDVWGQGTTVTVSS
VL: QSVVTQPPSVSGAQGQRVFISCTGNGANIGMGYDVHWYQQLPGRAPKLLIFGNTNRPSGVPDRFSASRSGTSASLAITGLQTADEADYYCQSYDGNLRASVFGGGTKLTVL
notes: source: E. coli strain HB2151, purified (nickel-nitrilotriacetic acid resin)
Work on B1 yielded an EC50 [1] of roughly 16 nM.

B2: nCoVmab1gFR (antibody, V domains shown)
VH: EVQLVESGGGLVQPGGSLRLSCAASGFTVSSNYMSWVRQAPGKGLEWVSVIYSGGSTYYADSVKGRFTISRDNSKNTLYLQMNSLRAEDTAVYYCARGDGSDDYYYGMDVWGQGTTVTVSS
VL: QSVVTQPPSVSGAPGQRVTISCTGSGANIGMGYDVHWYQQLPGTAPKLLIYGNTNRPSGVPDRFSGSKSGTSASLAITGLQAEDEADYYCQSYDGNLRASVFGGGTKLTVL
B2: binds [2].

B3: nCoVmab2 (antibody, V domains shown)
VH: EVQLVQSGGGVVQPGRSLRLSCAASGFTVSSNYMSWVRQAPGKGLEWVSVIYSGGSTYYADSVKGRFTISRDNSKNTLYLQMNSLRAEDTAVYYCARGDGSDDYYYGMDVWGQGTTVTVSS
VL: QAVLTQPSSVSGAPGQRVTISCTGSSSNVGAGYDVHWYQQLPGTAPKLLIYGNSNRPSGVPDRFSGSKSGTSASLAITGLQAEDEADYYCQSYDSSLSGSVFGGGTKLTVL
notes: also called nCoVFab2 in IgG1 format; source: 293F cells, purified (Protein A resin)
B3 gave an EC50 [2] of 0.84 nM.

B4: nCoVmab1_(gHgL) (antibody, V domains shown)
VH: EVQLVESGGGLVQPGGSLRLSCAASGFTVSSNYMSWVRQAPGKGLEWVSVIYSGGSTYYADSVKGRFTISRDNSKNTLYLQMNSLRAEDTAVYYCARGDGSYYYYYGMDVWGQGTTVTVSS
VL: QSVVTQPPSVSGAPGQRVTISCTGSSSNIGAGYDVHWYQQLPGTAPKLLIYGNSNRPSGVPDRFSGSKSGTSASLAITGLQAEDEADYYCQSYDSSLSGWVFGGGTKLTVL
B4: no binding [2].

B5: nCoVFab2 (Fab, V domains shown)
VH: EVQLVQSGGGVVQPGRSLRLSCAASGFTVSSNYMSWVRQAPGKGLEWVSVIYSGGSTYYADSVKGRFTISRDNSKNTLYLQMNSLRAEDTAVYYCARGDGSDDYYYGMDVWGQGTTVTVSS
VL: QAVLTQPSSVSGAPGQRVTISCTGSSSNVGAGYDVHWYQQLPGTAPKLLIYGNSNRPSGVPDRFSGSKSGTSASLAITGLQAEDEADYYCQSYDSSLSGSVFGGGTKLTVL
notes: as for B1
With B5 the EC50 [1] was roughly 63 nM.

B6: nCoVmab1 (antibody, V domains shown)
VH: QVQLVESGGGLVQPGGSLRLSCAASGFTVSSNYMSWVRQAPGKGLEWVSVIYSGGSTYYADSVKGRFTISRDNSKNTLYLQMNSLRAEDTAVYYCARGDGSDDYYYGMDVWGQGTTVTVSS
VL: QSVVTQPPSVSGAQGQRVFISCTGNGANIGMGYDVHWYQQLPGRAPKLLIFGNTNRPSGVPDRFSASRSGTSASLAITGLQTADEADYYCQSYDGNLRASVFGGGTKLTVL
notes: also called nCoVFab1 in IgG1 format; source: 293F cells, purified (Protein A resin)
B6 gave an EC50 [2] of 0.56 nM.

B7: nCoVmab1_(gHmL) (antibody, V domains shown)
VH: EVQLVESGGGLVQPGGSLRLSCAASGFTVSSNYMSWVRQAPGKGLEWVSVIYSGGSTYYADSVKGRFTISRDNSKNTLYLQMNSLRAEDTAVYYCARGDGSYYYYYGMDVWGQGTTVTVSS
VL: QSVVTQPPSVSGAQGQRVFISCTGNGANIGMGYDVHWYQQLPGRAPKLLIFGNTNRPSGVPDRFSASRSGTSASLAITGLQTADEADYYCQSYDGNLRASVFGGGTKLTVL
B7: no binding [2].

Source: publication PMC8352940 (Nature Communications, 2021)
